Laboratory results from publication PMC4183468.

Target: VE-cadherin (Human CD-144, cadherin-5) (human) (UniProt P33151)
Assay: ELISA; 0.01 µM VE-cadherin or control BSA coated on Linbro plate wells in HBSC overnight at 4°C, blocked with 1% BSA in DMEM; MBP fusions added for 1 hr; detected with anti-MBP antibody, OD655; VE-cadherin signal minus BSA and plastic binding

Sequence of UniProt P33151 (P33151 48-599): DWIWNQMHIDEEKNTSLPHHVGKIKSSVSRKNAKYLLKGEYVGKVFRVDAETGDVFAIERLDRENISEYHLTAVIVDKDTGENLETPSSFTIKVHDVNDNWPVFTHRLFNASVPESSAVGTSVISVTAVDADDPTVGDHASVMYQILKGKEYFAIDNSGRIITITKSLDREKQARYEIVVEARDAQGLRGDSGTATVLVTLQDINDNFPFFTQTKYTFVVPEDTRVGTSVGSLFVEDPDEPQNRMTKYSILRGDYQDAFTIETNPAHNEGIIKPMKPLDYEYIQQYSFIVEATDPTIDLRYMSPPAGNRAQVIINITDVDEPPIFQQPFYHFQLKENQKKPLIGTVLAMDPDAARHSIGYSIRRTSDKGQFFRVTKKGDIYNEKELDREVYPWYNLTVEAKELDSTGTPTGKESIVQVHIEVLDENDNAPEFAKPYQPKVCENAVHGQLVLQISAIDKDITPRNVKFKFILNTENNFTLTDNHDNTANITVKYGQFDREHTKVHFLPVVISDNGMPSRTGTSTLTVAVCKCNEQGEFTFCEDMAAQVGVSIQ

Substance	Kd [nM]
MBP fusion of L. interrogans candidate adhesin LIC11574 (natural protein)	7.6
MBP fusion of L. interrogans candidate adhesin LIC13411 (natural protein)	0.4
